The chains are these.
B1: h3818G (antibody, V domains shown)
VH: EVQLLESGGGLVQPGGSLRLSCAASGFTFANYGMSWVRQAPGKGLEWVASVRSGGSRTYYSDNVKGRFTISRDNSKNTLYLQMNSLRAEDTAVYYCVRYDHYSGSSDYWGQGTLVTVSS
VL: DVVMTQSPLSLPVTLGEPASISCKSSQSLMDTDGKTYLNWLLQKPGQSPQRLIYKVSNRESGVPDRFSGSGSGTDFTLKISRVEAEDVGVYYCWQGTHFPRTFGQGTKVEIK
B2: h2826 (antibody, V domains shown)
VH: EVQLLESGGGLVQPGGSLRLSCAASGFTFSNFGMSWVRQAPGKGLEWVASVRSGSGRTYYSDNVKGRFTISRDNSKNTLYLQMNSLRAEDTAVYYCVRYDHYSGTSDYWGQGTLVTVSS
VL: DVVMTQSPLSLPVTPGEPASISCKSSQSLLDYDGKTYLNWLLQKPGQSPQRLIYKVSNRDSGVPDRFSGSGSGTDFTLKISRVEAEDVGVYYCWQGTHFPRTFGQGTKVEIK
B3: h49k3G (antibody, V domains shown)
VH: EVQLLESGGGLVQPGGSLRLSCAASGFTFSNFGMSWVRQAPGKGLEWVASVRSGGGRTYYSDNVKGRFTISRDNSKNTLYLQMNSLRAEDTAVYYCVRYDHYSGTSDYWGQGTLVTVSS
VL: DVVMTQSPLSLPVTLGEPASISCKSSQSLLDSDGKTYLNWLLQKPGQSPQRLIYKVSNRDSGVPDRFSGSGSGTDFTLKISRVEAEDVGVYYCWQGTHFPRTFGQGTKVEIK
B4: h2929 (antibody, V domains shown)
VH: EVQLLESGGGLVQPGGSLRLSCAASGFTFSNFGMSWVRQAPGKGLEWVASVRSGSGRTYYSDNVKGRFTISRDNSKNTLYLQMNSLRAEDTAVYYCVRYDHYTGTSDYWGQGTLVTVSS
VL: DVVMTQSPLSLPVTPGEPASISCRSSQSLVDYDGKTYLNWLLQRPGQSPQRLIYKVSNRDSGVPDRFSGSGSGTDFTLKISRVEAEDVGVYYCWQGSHFPRSYGQGTKVEIK
B5: h4917G (antibody, V domains shown)
VH: EVQLLESGGGLVQPGGSLRLSCAASGFTFSNFGMSWVRQAPGKGLEWVASVRSGGGRTYYSDNVKGRFTISRDNSKNTLYLQMNSLRAEDTAVYYCVRYDHYSGTSDYWGQGTLVTVSS
VL: DVVMTQSPLSLPVTLGEPASISCKSSQSLLDSDGKTYLNWLLQKPGQSPQRLIYKVTNRESGVPDRFSGSGSGTDFTLKISRVEAEDVGVYYCWQGTHFPRSFGQGTKVEIK
B6: h2727 (antibody, V domains shown)
VH: EVQLLESGGGLVQPGGSLRLSCAASGFTFSNYGMSWVRQAPGKGLEWVASIRSGSGRTYYSDNVKGRFTISRDNSKNTLYLQMNSLRAEDTAVYYCVRYDHYSGSSDYWGQGTLVTVSS
VL: DVVMTQSPLSLPVTPGEPASISCKSSQSLLDYDGKTYLNWLLQKPGQSPQRLIYKVSNRDSGVPDRFSGSGSGTDFTLKISRVEAEDVGVYYCWQGTHFPRSFGQGTKVEIK
B7: h4921G (antibody, V domains shown)
VH: EVQLLESGGGLVQPGGSLRLSCAASGFTFSNFGMSWVRQAPGKGLEWVASVRSGGGRTYYSDNVKGRFTISRDNSKNTLYLQMNSLRAEDTAVYYCVRYDHYSGTSDYWGQGTLVTVSS
VL: DVVMTQSPLSLPVTLGEPASISCKSSQSLLDSDGKTYLNWLLQKPGQSPQRLIYRVTNRDTGVPDRFSGSGSGTDFTLKISRVEAEDVGVYYCWQGTHFPRTFGQGTKVEIK
B8: h2927 (antibody, V domains shown)
VH: EVQLLESGGGLVQPGGSLRLSCAASGFTFSNFGMSWVRQAPGKGLEWVASVRSGSGRTYYSDNVKGRFTISRDNSKNTLYLQMNSLRAEDTAVYYCVRYDHYTGTSDYWGQGTLVTVSS
VL: DVVMTQSPLSLPVTPGEPASISCKSSQSLLDYDGKTYLNWLLQKPGQSPQRLIYKVSNRDSGVPDRFSGSGSGTDFTLKISRVEAEDVGVYYCWQGTHFPRSFGQGTKVEIK
B9: h2926 (antibody, V domains shown)
VH: EVQLLESGGGLVQPGGSLRLSCAASGFTFSNFGMSWVRQAPGKGLEWVASVRSGSGRTYYSDNVKGRFTISRDNSKNTLYLQMNSLRAEDTAVYYCVRYDHYTGTSDYWGQGTLVTVSS
VL: DVVMTQSPLSLPVTPGEPASISCKSSQSLLDYDGKTYLNWLLQKPGQSPQRLIYKVSNRDSGVPDRFSGSGSGTDFTLKISRVEAEDVGVYYCWQGTHFPRTFGQGTKVEIK
B10: h2731 (antibody, V domains shown)
VH: EVQLLESGGGLVQPGGSLRLSCAASGFTFSNYGMSWVRQAPGKGLEWVASIRSGSGRTYYSDNVKGRFTISRDNSKNTLYLQMNSLRAEDTAVYYCVRYDHYSGSSDYWGQGTLVTVSS
VL: DVVMTQSPLSLPVTLGEPASISCKSSQSLLDYDGKTYLNWLLQKPGQSPQRLIYRVTNRDTGVPDRFSGSGSGTDFTLKISRVEAEDVGVYYCWQGTHFPRSFGQGTKVEIK

Chain of Aβ1-42 fibrils (human) (peptide, as listed by the source): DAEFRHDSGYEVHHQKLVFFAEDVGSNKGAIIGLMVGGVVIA
Chain of Aβ plaques in APPxPS1 mouse brain (human) (P05067 672-713): as the sequence (peptide, as listed by the source) above

One test has as its target Aβ1-42 fibrils (human). Put plainly: competition ELISA; plate coated with fibril Aβ42; competitor hBP-biotin; IC50 of test divided by IC50 of hBP.
For the molecule B1, the IC50 ratio (test:hBP) amounted to 1.18. Take B2: the IC50 ratio (test:hBP) was 1.1. As to B3, the IC50 ratio (test:hBP) was determined as 2.16.

Regarding B4, the IC50 ratio (test:hBP) was 1.16.

With B5, the IC50 ratio (test:hBP) amounted to 2.69. As to B6, the IC50 ratio (test:hBP) was determined as 3.06.

On to B7, for which the IC50 ratio (test:hBP) worked out at 1.01.

B8: the IC50 ratio (test:hBP) came out at 1.6. As to B9, the IC50 ratio (test:hBP) was found to be 0.99.

The next test addresses Aβ plaques in APPxPS1 mouse brain (human) (UniProt P05067). As to the kind of experiment: in vivo target engagement; APPxPS1 mice dosed 10 mg/kg SC weekly for three weeks; anti-human IgG IHC of cerebral cortex, % stained area.
As for B10, the Plaque Binding (% ROI) worked out at 0.079 % ROI.

The next test has the same target. Put plainly: in vivo target engagement; APPxPS1 mice dosed 3 mg/kg SC weekly for three weeks; anti-human IgG IHC of cerebral cortex, % stained area.
Molecule B10 yielded a Plaque Binding (% ROI) of 0.07 % ROI.
